Reference: patent US8367124B2, “Lymphatic vessel stabilizer” (Shiseido Company, Ltd., priority 2008, dated 2013)

Tests used:
[1] = target: T1, Tie2 (Homo sapiens, UniProt Q02763); assay: Western blotting of lymphatic endothelial cells (Tie2 phosphorylation); assay type: cell-based; conditions: Western blot of Tie2 and phosphorylated Tie2, DMSO control, compared with Ang-1
T1 construct: endogenous in cells; host or cells: primary human lymphatic endothelial cells from infant foreskin
Description: Lymphatic endothelial cells were isolated from human infant foreskin as CD31-positive, CD34-negative, CD45-negative cells (Non-Patent Document 6). The lymphatic endothelial cells were cultured in EBM-2 (Cambrex, Verviers, Belgium) supplemented with addition factors, and protein was extracted with Phosphosafe Extraction Reagent (Novagen, Madison, Wis.) in the presence of various drugs (Ang-1, cinnamon bark extract, Siberian Ginseng extract and syringaresinol). Cells supplemented with DMSO were prepared as a control.
Furthermore, the cinnamon bark extract and syringaresinol were prepared in the manner indicated below. The Siberian Ginseng extract (Ask Intercity) was obtained by extracting Siberian Ginseng root with 30% ethanol. This extract was confirmed to contain 1.01% by weight syringaresinol by HPLC. This extract was then dissolved with DMSO for use as each test sample. The total amount of protein was determined with the RC DC Protein Assay Kit (BIO-RAD, Hercules, Calif.), and detected by Western blotting in the manner described below. An equal amount of total protein was subjected to SDS-PAGE using 7.5% acrylamide gel (NPU-7.5L, ATTO, Japan), and expression of Tie2 and phosphorylated Tie2 protein was confirmed by staining with an ECL Kit using […] (Santa Cruz Biotechnology, Santa Cruz, Calif.).

[2] = tested on: lymphatic vessels; assay: Lymph drainage assay (colloidal carbon injected into the auricle of mice infected with Ang-1 adenovirus); assay type: in vivo, mouse
Description: The auricles of 8-week-old mice were infected with adenovirus (1×10^9 ifu/mouse), in which mouse-derived angiopoietin-1 (Ang-1) gene was incorporated into an AdenoX vector, with a Hamilton syringe (Hamilton, Reno. NV). Mice were also infected with adenovirus incorporating only AdenoX vector as a control. 1 μl of colloidal carbon solution (Kamei Co., Ltd., Japan) was injected into the tip of the auricle with a Hamilton syringe followed by analysis of time-based changes in the flow of lymph. […] In addition, a visual assessment of changes in lymphatic vessel recovery function was also carried out, and comparisons were made by scoring to one of levels (5: all ink remaining in lymphatic vessels, 1: all ink recovered and no longer present in lymphatic vessels), the results of which are shown in FIG. 1.
In addition, after sacrificing the animals by anesthesia, the ears of the animals were simultaneously collected and crushed in liquid nitrogen followed by extraction of protein with Phosphosafe Extraction Reagent (Novagen, Madison, Wis.). The total amount of protein was determined with the RC DC Protein Assay Kit (BIO-RAD, Hercules, Calif.) and detected by Western blotting in the manner described below. […]

T1 sequence (Q02763 23-1124): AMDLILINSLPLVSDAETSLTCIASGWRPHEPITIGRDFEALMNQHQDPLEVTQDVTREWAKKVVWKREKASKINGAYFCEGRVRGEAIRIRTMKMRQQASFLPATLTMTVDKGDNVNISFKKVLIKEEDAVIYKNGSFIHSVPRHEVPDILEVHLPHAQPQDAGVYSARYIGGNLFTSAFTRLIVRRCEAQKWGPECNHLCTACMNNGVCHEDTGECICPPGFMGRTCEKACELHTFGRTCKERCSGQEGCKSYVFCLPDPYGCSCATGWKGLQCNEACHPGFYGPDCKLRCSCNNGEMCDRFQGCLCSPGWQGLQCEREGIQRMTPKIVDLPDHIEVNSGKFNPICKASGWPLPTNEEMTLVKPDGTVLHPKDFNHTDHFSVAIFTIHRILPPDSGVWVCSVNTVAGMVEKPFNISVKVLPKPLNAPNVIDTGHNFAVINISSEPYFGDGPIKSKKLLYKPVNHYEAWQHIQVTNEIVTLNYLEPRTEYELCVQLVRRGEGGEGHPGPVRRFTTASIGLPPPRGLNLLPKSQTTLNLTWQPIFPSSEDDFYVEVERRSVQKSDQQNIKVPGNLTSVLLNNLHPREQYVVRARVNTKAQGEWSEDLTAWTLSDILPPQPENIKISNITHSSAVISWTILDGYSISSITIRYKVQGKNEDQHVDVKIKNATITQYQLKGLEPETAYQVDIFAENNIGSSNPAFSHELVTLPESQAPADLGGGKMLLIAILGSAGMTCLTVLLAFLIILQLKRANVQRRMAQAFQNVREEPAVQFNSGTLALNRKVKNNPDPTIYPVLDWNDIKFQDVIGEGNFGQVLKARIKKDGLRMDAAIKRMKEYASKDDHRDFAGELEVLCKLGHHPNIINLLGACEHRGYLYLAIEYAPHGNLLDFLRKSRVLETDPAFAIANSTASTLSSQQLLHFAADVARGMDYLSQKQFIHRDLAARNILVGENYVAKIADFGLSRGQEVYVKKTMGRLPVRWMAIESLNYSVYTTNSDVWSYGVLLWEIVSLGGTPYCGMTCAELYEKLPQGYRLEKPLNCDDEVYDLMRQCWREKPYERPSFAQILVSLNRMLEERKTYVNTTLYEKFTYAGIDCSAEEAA

## COc1cc(C2OCC3C(c4cc(OC)c(O)c(OC)c4)OCC23)cc(OC)c1O (stereo not drawn) [syringaresinol, Syringaresinol]
[1]
  Tie2 phosphorylation (activation): confirmed to activate Tie2 in the same manner as Ang-1

B1: angiopoietin 1 (protein, UniProt O08538 20-498, looked up)
Angiopoietin-1: SNQRRNPENGGRRYNRIQHGQCAYTFILPEHDGNCRESATEQYNTNALQRDAPHVEPDFSSQKLQHLEHVMENYTQWLQKLENYIVENMKSEMAQIQQNAVQNHTATMLEIGTSLLSQTAEQTRKLTDVETQVLNQTSRLEIQLLENSLSTYKLEKQLLQQTNEILKIHEKNSLLEHKILEMEGKHKEELDTLKEEKENLQGLVSRQTFIIQELEKQLSRATNNNSILQKQQLELMDTVHNLISLCTKEGVLLKGGKREEEKPFRDCADVYQAGFNKSGIYTIYFNNMPEPKKVFCNMDVNGGGWTVIQHREDGSLDFQRGWKEYKMGFGNPSGEYWLGNEFIFAITSQRQYMLRIELMDWEGNRAYSQYDRFHIGNEKQNYRLYLKGHTGTAGKQSSLILHGADFSTKDADNDNCMCKCALMLTGGWWFDACGPSNLNGMFYTAGQNHGKLNGIKWHYFKGPSYSLRSTTMMIRPLDF
modifications: adenovirus-expressed
notes: mouse-derived Ang-1 gene expressed from AdenoX adenovirus vector in vivo
[2]; ears of mice highly expressing Ang1 via adenovirus, 1 μl colloidal carbon into tip of auricle, vs AdenoX vector control, data not shown
  lymphatic vessel recovery function (time-based changes in the flow of lymph): promoted
[2]; mouse auricle, Ang-1 adenovirus vs AdenoX vector control, FIG. 1
  lymphatic vessel recovery function, visual assessment score (5: all ink remaining, 1: all ink recovered): remarkable promotion of lymphatic vessel recovery function
